“And” between values parts separate entries of the source, which are not always exact repeats. Equal values may be shown once. Read-outs that look alike come from different tables or passages of the source.

Data on five molecules can be found in publication PMC12767347 (bioRxiv, 2025).

The data set “SEC” deals with the molecule itself. The data set is described as follows: SEC.
Data set [1] concerns the target T1, HA-tagged PNPase (catalytically active) (M. smegmatis, UniProt A0QVQ5 1-763).
T1 sequence: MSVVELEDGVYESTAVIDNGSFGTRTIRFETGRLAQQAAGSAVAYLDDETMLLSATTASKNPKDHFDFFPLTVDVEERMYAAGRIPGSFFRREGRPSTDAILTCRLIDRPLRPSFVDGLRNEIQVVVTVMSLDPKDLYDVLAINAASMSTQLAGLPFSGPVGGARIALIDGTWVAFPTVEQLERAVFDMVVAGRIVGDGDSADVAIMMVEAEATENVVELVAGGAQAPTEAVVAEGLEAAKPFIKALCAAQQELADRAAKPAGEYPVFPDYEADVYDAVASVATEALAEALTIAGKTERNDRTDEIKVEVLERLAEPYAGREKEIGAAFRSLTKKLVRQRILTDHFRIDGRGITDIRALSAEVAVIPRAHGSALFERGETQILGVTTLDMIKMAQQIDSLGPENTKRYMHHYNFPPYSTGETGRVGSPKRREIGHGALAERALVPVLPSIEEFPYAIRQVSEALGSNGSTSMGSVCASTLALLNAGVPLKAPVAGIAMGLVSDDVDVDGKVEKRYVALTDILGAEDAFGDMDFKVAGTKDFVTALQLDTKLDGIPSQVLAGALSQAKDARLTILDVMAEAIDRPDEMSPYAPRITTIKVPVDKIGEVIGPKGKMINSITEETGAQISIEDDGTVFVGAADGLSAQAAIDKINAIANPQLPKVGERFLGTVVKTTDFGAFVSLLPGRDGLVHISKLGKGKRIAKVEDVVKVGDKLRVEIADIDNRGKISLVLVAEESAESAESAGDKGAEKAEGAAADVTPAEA
The data set is described as follows: co-IP.

The target of data set [2] is T2, untagged PNPase (catalytically active) (M. smegmatis, UniProt A0QVQ5 1-763).
T2 sequence: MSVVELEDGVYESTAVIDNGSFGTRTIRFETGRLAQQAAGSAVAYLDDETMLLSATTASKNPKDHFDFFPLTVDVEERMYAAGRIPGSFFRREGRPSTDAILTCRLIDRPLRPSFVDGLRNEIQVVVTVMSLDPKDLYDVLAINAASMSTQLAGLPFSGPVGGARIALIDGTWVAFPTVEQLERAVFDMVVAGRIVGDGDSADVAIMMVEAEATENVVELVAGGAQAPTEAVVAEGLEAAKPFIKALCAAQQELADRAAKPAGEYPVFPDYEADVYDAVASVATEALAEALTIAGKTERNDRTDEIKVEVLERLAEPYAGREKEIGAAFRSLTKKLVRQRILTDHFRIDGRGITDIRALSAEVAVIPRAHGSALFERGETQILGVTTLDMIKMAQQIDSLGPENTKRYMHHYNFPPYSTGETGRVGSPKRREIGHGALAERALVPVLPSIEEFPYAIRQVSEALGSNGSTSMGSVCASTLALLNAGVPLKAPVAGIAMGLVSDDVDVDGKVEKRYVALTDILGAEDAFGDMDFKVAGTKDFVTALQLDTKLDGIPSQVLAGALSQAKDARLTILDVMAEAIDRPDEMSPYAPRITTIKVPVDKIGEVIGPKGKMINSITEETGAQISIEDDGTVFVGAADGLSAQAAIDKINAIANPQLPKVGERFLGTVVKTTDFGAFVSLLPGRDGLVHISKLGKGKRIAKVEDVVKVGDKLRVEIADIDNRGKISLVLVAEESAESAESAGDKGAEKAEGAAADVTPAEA
The data set can be described thus: co-IP.

In data set [3] the target is T1, HA-tagged PNPase (catalytically active). The data set can be described thus: co-IP. This is another data set of the same source.

B1: catalytically dead full-length RNase E (D694R, D738R), N-terminal 6x-His and FLAG tagged (enzyme)
chain: MAEDAHTEDLSTQTPQQEGLPERLRVHSLARVLGTTSRRVLDALAEFDGRQRSAHSTVDKADAERVRAALTESPAAETPPEEAPAAETPVADLVVVQAEQVEVVTVSEAGPAEPAEPAEPEAPAAEAEAEAETEVADEAETPEPTFRGAVLVGDEPESRLILEHANIPPARETQTERPDYLPLFVAPQPVSFEPAVVDDEDEDDDTETGAESDFDSGADSDSDDDQADRPRRRRRGRRGRGRGRGEQNDDATSDADTDSTEDQTDGDEQESGEDSDDSGDEDSTTTEGGTRRRRRRRRRKSGSGDSDDAVSPDDPPNTVVHERAPRTERSDKSDDSEIQGISGSTRLEAKRQRRRDGRDAGRRRPPILSEAEFLARREAVERTMIVRDKVRTEPPHEGARYTQIAVLEDGVVVEHFVTSAASASLVGNIYLGIVQNVLPSMEAAFVDIGRGRNGVLYAGEVNWEAAGLGGQNRKIEQALKPGDYVVVQVSKDPVGHKGARLTTQVSLAGRYLVYVPGASSTGISRKLPDTERQRLKEILREVVPSDAGVIIRTASEGVKEEDIRSDVERLQKRWSEIEAKAAEVTEKKAGAAVALYEEPDVLVKVIRDLFNEDFSSLIVSGDEAWNTINSYVEAVAPDLMPRLTKYEPAGPDAPDVFAVHRIDEQLAKAMDRKVWLPSGGTLVIDRTEAMTVVRVNTGKFTGSGGNLEQTVTRNNLEAAEEIVRQLRLRDIGGIVVIRFIDMVLESNRDLVLRRLTEALARDRTRHQVSEVTSLGLVQLTRKRLGTGLVEAFSTACTHCGGRGIVLHGDPIDSASSNGGRKSDSSGGGGSGGGRRGKRGKKGAARTEEVHVAKVPDHTPGEHPMFKAMAAANGKHEGDEDHEDHEDHETAEDTTAAEVRDDTRDEHDADERAHVVTAAVGAAGDEDLDDSDEDSDLDSDEESDDESDEDEIELDDDEDELDEDIEVIGDSDDSDDSDDSDEDDDSDDSDDDSDEDEDSDSDEDEEPVREVYEPPVTAPRARVRRRAAARPAGPPSHD
Usually stoichiometry N stands for a count of units in the complex or per binding partner. For B1, the “stoichiometry N” value in the data set “SEC” was 4.

B2: catalytically dead RNase E C-terminal IDR deletion (retaining AA 2-823), N-terminal 6x-His and FLAG tagged (domain or fragment)
chain: AEDAHTEDLSTQTPQQEGLPERLRVHSLARVLGTTSRRVLDALAEFDGRQRSAHSTVDKADAERVRAALTESPAAETPPEEAPAAETPVADLVVVQAEQVEVVTVSEAGPAEPAEPAEPEAPAAEAEAEAETEVADEAETPEPTFRGAVLVGDEPESRLILEHANIPPARETQTERPDYLPLFVAPQPVSFEPAVVDDEDEDDDTETGAESDFDSGADSDSDDDQADRPRRRRRGRRGRGRGRGEQNDDATSDADTDSTEDQTDGDEQESGEDSDDSGDEDSTTTEGGTRRRRRRRRRKSGSGDSDDAVSPDDPPNTVVHERAPRTERSDKSDDSEIQGISGSTRLEAKRQRRRDGRDAGRRRPPILSEAEFLARREAVERTMIVRDKVRTEPPHEGARYTQIAVLEDGVVVEHFVTSAASASLVGNIYLGIVQNVLPSMEAAFVDIGRGRNGVLYAGEVNWEAAGLGGQNRKIEQALKPGDYVVVQVSKDPVGHKGARLTTQVSLAGRYLVYVPGASSTGISRKLPDTERQRLKEILREVVPSDAGVIIRTASEGVKEEDIRSDVERLQKRWSEIEAKAAEVTEKKAGAAVALYEEPDVLVKVIRDLFNEDFSSLIVSGDEAWNTINSYVEAVAPDLMPRLTKYEPAGPDAPDVFAVHRIDEQLAKAMDRKVWLPSGGTLVIDRTEAMTVVRVNTGKFTGSGGNLEQTVTRNNLEAAEEIVRQLRLRDIGGIVVIRFIDMVLESNRDLVLRRLTEALARDRTRHQVSEVTSLGLVQLTRKRLGTGLVEAFSTACTHCGGRGIVLHGDPIDSASSNGGRKSD
In the case of B2, the “stoichiometry N” value in the data set “SEC” is 2 and 4.

B3: catalytically dead RNase E N-terminal IDR deletion (retaining AA 330-1037), N-terminal 6x-His and FLAG tagged (domain or fragment)
chain: SDKSDDSEIQGISGSTRLEAKRQRRRDGRDAGRRRPPILSEAEFLARREAVERTMIVRDKVRTEPPHEGARYTQIAVLEDGVVVEHFVTSAASASLVGNIYLGIVQNVLPSMEAAFVDIGRGRNGVLYAGEVNWEAAGLGGQNRKIEQALKPGDYVVVQVSKDPVGHKGARLTTQVSLAGRYLVYVPGASSTGISRKLPDTERQRLKEILREVVPSDAGVIIRTASEGVKEEDIRSDVERLQKRWSEIEAKAAEVTEKKAGAAVALYEEPDVLVKVIRDLFNEDFSSLIVSGDEAWNTINSYVEAVAPDLMPRLTKYEPAGPDAPDVFAVHRIDEQLAKAMDRKVWLPSGGTLVIDRTEAMTVVRVNTGKFTGSGGNLEQTVTRNNLEAAEEIVRQLRLRDIGGIVVIRFIDMVLESNRDLVLRRLTEALARDRTRHQVSEVTSLGLVQLTRKRLGTGLVEAFSTACTHCGGRGIVLHGDPIDSASSNGGRKSDSSGGGGSGGGRRGKRGKKGAARTEEVHVAKVPDHTPGEHPMFKAMAAANGKHEGDEDHEDHEDHETAEDTTAAEVRDDTRDEHDADERAHVVTAAVGAAGDEDLDDSDEDSDLDSDEESDDESDEDEIELDDDEDELDEDIEVIGDSDDSDDSDDSDEDDDSDDSDDDSDEDEDSDSDEDEEPVREVYEPPVTAPRARVRRRAAARPAGPPSHD
B3: in “SEC”, the “stoichiometry N” value was 2 and 4. Besides, the binding result in data set [1] is on record as “binds”.

B4: HA-tagged RNase J (catalytically active) (enzyme)
chain: MSAELAPPPPLAPGGLRVTALGGISEIGRNMTVFEHLGRLLIVDCGVLFPGHDEPGVDLILPDLRHIEDRLDEIEALVVTHAHEDHIGAIPFLLKLRPDIPVVGSKFTIALVREKCREHRLKPKFVEVAERQSSQHGVFECEYFAVNHSIPGCLAVAIHTGAGTVLHTGDIKLDQLPLDGRPTDLPGMSRLGDAGVDLFLCDSTNSEHPGVSPSESEVGPTLHRLIRGAEGRVIVACFASNVDRVQQIIDAAVALGRRVSFVGRSMVRNMGIARELGYLKVDDSDILDIAAAEMMPPDRVVLITTGTQGEPMAALSRMSRGEHRSITLTSGDLIILSSSLIPGNEEAVYGVIDSLSKIGARVVTNAQARVHVSGHAYAGELLFLYNGVRPRNVMPVHGTWRHLRANAALAASTGVPPENIVLAENGVSVDLVAGRASISGAVTVGKMFVDGLITGDVGDATLGERLILSSGFVSITVVVHRGTGRPAGPAHLISRGFSEDPKALEPVAQKVERELEALAADNVTDPTRIAQAVRRTVGKWVGETYRRQPMIVPTVIEI
Regarding B4, the binding result in data set [2] is given as “binds”.

B5: untagged RNase J (catalytically active) (enzyme)
chain: MSAELAPPPPLAPGGLRVTALGGISEIGRNMTVFEHLGRLLIVDCGVLFPGHDEPGVDLILPDLRHIEDRLDEIEALVVTHAHEDHIGAIPFLLKLRPDIPVVGSKFTIALVREKCREHRLKPKFVEVAERQSSQHGVFECEYFAVNHSIPGCLAVAIHTGAGTVLHTGDIKLDQLPLDGRPTDLPGMSRLGDAGVDLFLCDSTNSEHPGVSPSESEVGPTLHRLIRGAEGRVIVACFASNVDRVQQIIDAAVALGRRVSFVGRSMVRNMGIARELGYLKVDDSDILDIAAAEMMPPDRVVLITTGTQGEPMAALSRMSRGEHRSITLTSGDLIILSSSLIPGNEEAVYGVIDSLSKIGARVVTNAQARVHVSGHAYAGELLFLYNGVRPRNVMPVHGTWRHLRANAALAASTGVPPENIVLAENGVSVDLVAGRASISGAVTVGKMFVDGLITGDVGDATLGERLILSSGFVSITVVVHRGTGRPAGPAHLISRGFSEDPKALEPVAQKVERELEALAADNVTDPTRIAQAVRRTVGKWVGETYRRQPMIVPTVIEI
As for B5, the binding result in data set [3] is reported as “binds”.
